Test results taken from the RNAGym collection of RNA variant scans (doi:10.7554/elife.80360).

B1: HDV Ribozyme (parent)
chain: GGCCGGCAUGGUCCCAGCCUCCUCGCUGGCGCCGGCUGGGCAACAUUCCGAGGGGACCGUCCCCUCGGUAAUGGCGAAUGGGACCCA

Variants of: B1
Experiment: self-cleavage, relative activity (ratio to wild type); higher = more cleavage; co-transcriptional

Row | Variant | self-cleavage
1 | C22G C85G | 0.0396
2 | U23G G74C | 0.188
3 | U23G G74U | 0.0863
4 | C22A G55U | 0.353
5 | C22G G67U | 0.0519
6 | C22G A51U | 0.0339
7 | U23C C62A | 0.762
8 | C22A C30U | 0.121
9 | C22A C30A | 0.0405
10 | C21U U60G | 0.122
11 | C22G C48A | 0.141
12 | U23A G35C | 0.212
13 | U23A G35U | 0.431
14 | C22U G50A | 0.745
15 | C21U U46C | 0.386
16 | C21U U46G | 0.0978
17 | C21U U46A | 0.511
18 | C22U C84G | 0.291
19 | C21U G53U | 0.234
20 | U23C C63G | 0.813
21 | C21U U37C | 0.354
22 | U23C A87C | 0.929
23 | C22A A87C | 0.491
24 | U23A A87C | 1

Row | Variant | self-cleavage
25 | U23A A87U | 0.99
26 | U23A A87G | 0.816
27 | C22G A78U | 0.0396
28 | U23C A78C | 0.231
29 | C22G A71U | 0.0923
30 | U23G G67C | 0.59
31 | U23A U47A | 0.877
32 | U23A U47G | 0.748
33 | U23G A42C | 0
34 | C22U G52U | 0.795
35 | U23G G25C | 0
36 | U23G U27G | 0.529
37 | U23A C48A | 0.88
38 | U23A C33A | 0.237
39 | U23A C33U | 1.05
40 | C22G G50C | 0
41 | C22G G50A | 0.0504
42 | C22U G74U | 0.0683
43 | U23C C84U | 0.831
44 | U23C C84A | 0.911
45 | C22G C66U | 0.0308
46 | C22U G28U | 0.148
47 | C22U U37C | 0.415
48 | C21U G80A | 0.185

Row | Variant | self-cleavage
49 | U23G A70C | 0.571
50 | U23A G81U | 0.134
51 | U23A G81A | 0.305
52 | U23A G81C | 0.306
53 | C21U C86A | 0.505
54 | C21U C86G | 0.253
55 | C22G G54U | 0.0841
56 | C22G G59A | 0.124
57 | U23G G29A | 0
58 | U23A A78G | 0.697
59 | U23G G73C | 0.0773
60 | U23G G73U | 0.0604
61 | U23G G73A | 0.259
62 | C22U G80A | 0.113
63 | C22U G80C | 0.0712
64 | C22U G80U | 0.11
65 | U23A G50U | 0.964
66 | C22A C86U | 0.293
67 | C22A C66G | 0.373
68 | C22G G53U | 0.0563
69 | C22U C85A | 0.59
70 | U23A G25U | 0.104
71 | C22A C75G | 0.0604
72 | C22A C75A | 0.0308

Row | Variant | self-cleavage
73 | U23G A87C | 0.799
74 | C22U A45G | 0.656
75 | C22U C24U | 0.22
76 | C22U C24A | 0.302
77 | U23G C85U | 0.898
78 | U23G C85G | 0.643
79 | C22A G68A | 0.298
80 | U23G G82A | 0.0449
81 | U23G G82U | 0.17
82 | C22A C44U | 0.0282
83 | U23A U27G | 0.762
84 | U23C G35U | 0.354
85 | U23G C63U | 0.469
86 | C22U A77U | 0.233
87 | U23G A56U | 0.759
88 | C22A G67C | 0.337
89 | U23A C36G | 0.17
90 | C22U G82C | 0.198
91 | C22U A42U | 0.138
92 | C22U A42C | 0.122
93 | C22G U72C | 0
94 | U23G C32A | 0.0652
95 | U23G C32U | 0.6
96 | C22G C41G | 0.0831

Row | Variant | self-cleavage
97 | U23A A70C | 1.01
98 | C22G U65G | 0.155
99 | C22G U65A | 0.0504
100 | U23G C58A | 0.877
101 | U23A G52A | 1.02
102 | C22G C49G | 0.0277
103 | C22U C58A | 0.914
104 | C22U C58U | 0.684
105 | C22G G38U | 0.117
106 | C22A U72C | 0
107 | U23A C41G | 0.849
108 | C22A A83C | 0.147
109 | U23G C33U | 0.569
110 | C22G U27G | 0.0978
111 | C22G U27A | 0.208
112 | U23A G74C | 0.323
113 | C22A U65A | 0.237
114 | U23G G59U | 0.886
115 | C22U A51G | 0.721
116 | U23G C84A | 0.712
117 | C22U C33G | 0.163
118 | U23C C32U | 0.587
119 | U23C C32A | 0.125
120 | U23C C64U | 0.786

Row | Variant | self-cleavage
121 | U23A A42U | 0.57
122 | C22G G81A | 0.0528
123 | U23G G28A | 0.0941
124 | U23G G28U | 0.0326
125 | U23A G39U | 0.696
126 | C22U C49A | 0.665
127 | C22U C49G | 0.684
128 | C22U C49U | 0.45
129 | U23C C85G | 0.869
130 | U23C G81A | 0.591
131 | C22U C44G | 0.095
132 | C22U G67U | 0.548
133 | C22G C63G | 0
134 | C22G C63A | 0.166
135 | U23G G31C | 0.178
136 | C21U G52C | 0.173
137 | C22A G50A | 0.235
138 | U23C G73U | 0.148
139 | U23C G73C | 0.269
140 | U23C G73A | 0.525
141 | C21U U27G | 0.0755
142 | U23C C33U | 0.697
143 | U23C C66A | 0.982
144 | C21U U69G | 0.19

Row | Variant | self-cleavage
145 | C21U U69A | 0.148
146 | C22A A42G | 0
147 | C22A A42C | 0
148 | U23A U60G | 0.923
149 | U23A U60A | 0.98
150 | U23G G52U | 0.585
151 | U23G U79C | 0.125
152 | U23G U79G | 0.192
153 | U23G G50U | 0.607
154 | U23C G53A | 0.849
155 | C22U G29U | 0.101
156 | C22U G29A | 0.249
157 | C22U G53U | 0.61
158 | C22U G53A | 0.821
159 | U23C U27C | 0.65
160 | U23G G68U | 0.969
161 | U23G G68C | 0.482
162 | U23C A45C | 0.573
163 | C22G U60C | 0.0332
164 | U23C A56U | 0.987
165 | C22U C57A | 0.846
166 | C21U G34C | 0
167 | C22A C32G | 0.0437
